These results are taken from article PMC3143821 (Molecular cell, 2011).

The target in this experiment is human Dicer (human, UniProt Q9UPY3 1-1922). Nature of the experiment: in vitro reconstitution of the complex.
human Dicer, sequence (Q9UPY3 whole entry): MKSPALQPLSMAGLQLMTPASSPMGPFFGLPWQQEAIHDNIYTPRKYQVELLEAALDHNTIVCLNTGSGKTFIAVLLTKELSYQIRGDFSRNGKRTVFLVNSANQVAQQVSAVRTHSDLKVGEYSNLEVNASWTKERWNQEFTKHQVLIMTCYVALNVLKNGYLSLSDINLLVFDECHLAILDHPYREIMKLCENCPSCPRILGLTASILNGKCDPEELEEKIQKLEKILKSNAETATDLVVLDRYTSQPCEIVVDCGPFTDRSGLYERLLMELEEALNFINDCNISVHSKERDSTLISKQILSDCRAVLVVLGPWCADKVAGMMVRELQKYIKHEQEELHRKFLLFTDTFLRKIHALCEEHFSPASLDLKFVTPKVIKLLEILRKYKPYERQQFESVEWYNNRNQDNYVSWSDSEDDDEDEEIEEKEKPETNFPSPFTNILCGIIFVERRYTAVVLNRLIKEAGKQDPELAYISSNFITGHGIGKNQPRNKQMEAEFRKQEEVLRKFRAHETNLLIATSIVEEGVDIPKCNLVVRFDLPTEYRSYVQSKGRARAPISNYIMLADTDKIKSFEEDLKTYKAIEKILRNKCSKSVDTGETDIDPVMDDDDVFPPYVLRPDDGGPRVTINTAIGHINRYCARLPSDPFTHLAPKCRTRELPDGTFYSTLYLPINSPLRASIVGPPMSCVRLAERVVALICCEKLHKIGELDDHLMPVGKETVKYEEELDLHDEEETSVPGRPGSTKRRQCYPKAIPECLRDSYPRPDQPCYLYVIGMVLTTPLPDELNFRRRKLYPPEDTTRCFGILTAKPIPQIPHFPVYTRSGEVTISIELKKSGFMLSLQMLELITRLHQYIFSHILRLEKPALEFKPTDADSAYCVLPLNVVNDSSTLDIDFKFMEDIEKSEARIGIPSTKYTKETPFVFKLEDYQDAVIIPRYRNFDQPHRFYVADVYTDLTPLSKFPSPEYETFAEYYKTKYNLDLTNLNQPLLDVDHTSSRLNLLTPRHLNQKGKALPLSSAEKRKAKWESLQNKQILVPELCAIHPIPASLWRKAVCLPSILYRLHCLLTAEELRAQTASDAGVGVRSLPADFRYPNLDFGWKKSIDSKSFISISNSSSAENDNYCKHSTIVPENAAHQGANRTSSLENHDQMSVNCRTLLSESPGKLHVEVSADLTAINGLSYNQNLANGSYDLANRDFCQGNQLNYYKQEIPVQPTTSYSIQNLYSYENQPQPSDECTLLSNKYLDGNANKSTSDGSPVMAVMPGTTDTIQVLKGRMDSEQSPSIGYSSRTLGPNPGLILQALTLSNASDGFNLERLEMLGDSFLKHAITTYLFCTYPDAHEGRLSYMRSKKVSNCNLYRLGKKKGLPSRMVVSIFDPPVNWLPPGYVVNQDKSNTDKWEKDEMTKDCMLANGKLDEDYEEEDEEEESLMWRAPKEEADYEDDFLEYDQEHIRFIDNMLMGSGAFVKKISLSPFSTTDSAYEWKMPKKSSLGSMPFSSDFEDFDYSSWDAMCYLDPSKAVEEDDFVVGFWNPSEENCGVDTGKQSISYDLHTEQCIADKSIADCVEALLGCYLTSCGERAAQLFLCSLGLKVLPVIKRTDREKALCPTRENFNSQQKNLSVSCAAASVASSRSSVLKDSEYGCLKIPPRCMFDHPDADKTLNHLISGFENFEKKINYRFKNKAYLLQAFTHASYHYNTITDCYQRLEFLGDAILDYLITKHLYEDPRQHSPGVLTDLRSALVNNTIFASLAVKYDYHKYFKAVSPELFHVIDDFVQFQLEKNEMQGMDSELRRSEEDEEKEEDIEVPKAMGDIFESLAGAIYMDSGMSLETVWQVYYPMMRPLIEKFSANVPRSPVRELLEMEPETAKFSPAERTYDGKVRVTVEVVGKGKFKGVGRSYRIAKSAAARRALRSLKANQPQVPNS

B1: PACT (natural protein, human, UniProt O75569 1-313, looked up)
chain: MSQSRHRAEAPPLEREDSGTFSLGKMITAKPGKTPIQVLHEYGMKTKNIPVYECERSDVQIHVPTFTFRVTVGDITCTGEGTSKKLAKHRAAEAAINILKANASICFAVPDPLMPDPSKQPKNQLNPIGSLQELAIHHGWRLPEYTLSQEGGPAHKREYTTICRLESFMETGKGASKKQAKRNAAEKFLAKFSNISPENHISLTNVVGHSLGCTWHSLRNSPGEKINLLKRSLLSIPNTDYIQLLSEIAKEQGFNITYLDIDELSANGQYQCLAELSTSPITVCHGSGISCGNAQSDAAHNALQYLKIIAERK
On to B1, for which the binding result is given as “binds”.

B2: TRBP (natural protein, human, UniProt Q15633 1-366, looked up)
chain: MSEEEQGSGTTTGCGLPSIEQMLAANPGKTPISLLQEYGTRIGKTPVYDLLKAEGQAHQPNFTFRVTVGDTSCTGQGPSKKAAKHKAAEVALKHLKGGSMLEPALEDSSSFSPLDSSLPEDIPVFTAAAAATPVPSVVLTRSPPMELQPPVSPQQSECNPVGALQELVVQKGWRLPEYTVTQESGPAHRKEFTMTCRVERFIEIGSGTSKKLAKRNAAAKMLLRVHTVPLDARDGNEVEPDDDHFSIGVGSRLDGLRNRGPGCTWDSLRNSVGEKILSLRSCSLGSLGALGPACCRVLSELSEEQAFHVSYLDIEELSLSGLCQCLVELSTQPATVCHGSATTREAARGEAARRALQYLKIMAGSK
As for B2, the binding result is “binds”.

B3: Argonaute2 (Ago2) (enzyme)
chain: not shown
B3: the binding result is recorded as “binds”.
